Source: patent US8877192B2, “Rage fusion proteins and methods of use” (TransTech Pharma, LLC, priority 2004, dated 2014)

Key:
[1] = molecular target: T1, amyloid-beta (Abeta) (Homo sapiens, UniProt P05067); experiment: In vitro ligand binding (ELISA) to immobilized amyloid-beta; conditions: increasing dilutions of fusion protein; FIG. 7
T1 construct: Amyloid Beta (1-40) from Biosource; purchased Biosource
Protocol: (§1) For example, the RAGE fusion protein may be used in a binding assay to identify potential RAGE ligands. In one example embodiment of such a binding assay, a known RAGE ligand may coated onto a solid substrate (e.g., Maxisorb plates) at a concentration of about 5 micrograms per well, where each well contains a total volume of about 100 microliters (μL). The plates may be incubated at 4° C. overnight to allow the ligand to absorb. Alternatively, shorter incubation periods at higher temperature (e.g., room temperature) may be used. […] The fusion protein bound to the immobilized ligand may be detected in a variety of ways. […] The bound complex may be detected by adding the alkaline phosphatase substrate, para-nitrophenylphosphate (PNPP), and measuring conversion of PNPP to para-nitrophenol (PNP) as an increase in absorbance at 405 nm. […] Binding was detected by the addition of an immunodetection complex containing a monoclonal mouse anti-human IgG1 diluted 1:11,000 to a final assay concentration (FAC) of 21 ng/100 μL, a biotinylated goat anti-mouse IgG diluted 1:500, to a FAC of […], and an avidin-linked alkaline phosphatase. […] Binding of the complex to the immobilized fusion protein was quantified by measuring conversion of PNPP to para-nitrophenol (PNP) which was measured spectrophotometrically at 405 nm. […]

[2] = molecular target: T2, S100b (S100) (Homo sapiens, UniProt P04271); experiment: In vitro ligand binding (ELISA) to immobilized S100b; conditions: increasing dilutions of fusion protein; FIG. 7
T2 sequence (P04271 1-92): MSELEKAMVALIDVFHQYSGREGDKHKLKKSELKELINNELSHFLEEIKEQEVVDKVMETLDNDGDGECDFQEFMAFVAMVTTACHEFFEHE
Protocol: as §1

[3] = molecular target: T3, amphoterin (Ampho) (Homo sapiens, UniProt P09429); experiment: In vitro ligand binding (ELISA) to immobilized amphoterin; conditions: increasing dilutions of fusion protein; FIG. 7
T3 sequence (P09429 1-215): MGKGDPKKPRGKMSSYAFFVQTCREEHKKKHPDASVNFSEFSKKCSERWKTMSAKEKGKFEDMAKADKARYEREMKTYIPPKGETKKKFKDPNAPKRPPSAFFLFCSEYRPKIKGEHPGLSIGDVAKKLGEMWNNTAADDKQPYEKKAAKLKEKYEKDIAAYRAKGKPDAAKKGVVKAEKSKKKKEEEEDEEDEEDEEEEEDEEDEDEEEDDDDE
Protocol: as §1

[4] = test system: amyloid-beta (A-beta); experiment: Competition of a RAGE ligand with immobilized amyloid-beta for binding to the fusion protein; conditions: TTP-4000 initial solution diluted 1:10 or 1:30; RAGE ligand FAC 10 μM
Protocol: The fusion protein of the present invention may also be used to identify compounds having the ability to bind to RAGE.
Known RAGE ligands were coated onto the surface of Maxisorb plates at a concentration of 5 micrograms per well. Plates were incubated at 4° C. overnight. Following ligand incubation, plates were aspirated and a blocking buffer of 1% BSA in 50 mM imidizole buffer (pH 7.2) was added to the plates for 1 hour at room temperature. The plates were then aspirated and/or washed with wash buffer (20 mM Imidizole, 150 mM NaCl, 0.05% Tween-20, 5 mM CaCl2 and 5 mM MgCl2, pH 7.2). […] The fusion protein was added at increasing dilutions of the initial sample. The RAGE fusion protein was allowed to incubate with the immobilized ligand at 37° C. for one hour after which the plate was washed and assayed for binding of the fusion protein. Binding was detected by the addition of an immunodetection complex containing a monoclonal mouse anti-human IgG1 diluted 1:11,000 to a final assay concentration (FAC) of 21 ng/100 μL, a biotinylated goat anti-mouse IgG diluted 1:500, to a FAC of […], and an avidin-linked alkaline phosphatase. […] Binding of the complex to the immobilized fusion protein was quantified by measuring conversion of PNPP to para-nitrophenol (PNP) which was measured spectrophotometrically at 405 nm. […]

T1 sequence (P05067 672-711 limits assumed): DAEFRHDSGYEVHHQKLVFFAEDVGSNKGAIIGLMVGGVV

B1: TTP-4000: four domain RAGE fusion protein (SEQ ID NO: 32): human RAGE amino acids 1-251 linked to CH2 and CH3 domains of human IgG (protein)
chain: MAAGTAVGAWALVLSLWGAVVGAQNITARIGEPLVLKCKGAPKKPPQRLEWKLNTGRTEAWKVLSPQGGGPWDSVARVLPNGSLFLPAVGIQDEGIFRCQAMNRNGKETKSNYRVRVYQIPGKPEIVDSASELTAGVPNKVGTCVSEGSYPAGTLSWHLDGKPLVPNEKGVSVKEQTRRHPETGLFTLQSELMVTPARGGDPRPTFSCSFSPGLPRHRALRTAPIQPRVWEPVPLEEVQLVVEPEGGAVAPPSVFLFPPKPKDTLMISRTPEVTCVVVDVSHEDPEVKFNWYVDGVEVHNAKTKPREEQYNSTYRVVSVLTVLHQDWLNGKEYKCKVSNKALPAPIEKTISKAKGQPREPQVYTLPPSRDELTKNQVSLTCLVKGFYPSDIAVEWESNGQPENNYKTTPPVLDSDGSFFLYSKLTVDKSRWQQGNVFSCSVMHEALHNHYTQKSLSLSPGK
binding to immobilized amyloid-beta (absorbance at 405 nm) [1]: specifically interact
binding to immobilized S100b (absorbance at 405 nm) [2]: specifically interact
binding to immobilized amphoterin (absorbance at 405 nm) [3]: specifically interact
block of binding of fusion protein to immobilized amyloid-beta by the RAGE ligand [4]: completely inhibited
